Molecular target: Full-length human RAB5 (RAB5A), purified, fluorescently labelled (human) (UniProt P20339)
Assay: MST

Sequence of UniProt P20339 (P20339 whole entry): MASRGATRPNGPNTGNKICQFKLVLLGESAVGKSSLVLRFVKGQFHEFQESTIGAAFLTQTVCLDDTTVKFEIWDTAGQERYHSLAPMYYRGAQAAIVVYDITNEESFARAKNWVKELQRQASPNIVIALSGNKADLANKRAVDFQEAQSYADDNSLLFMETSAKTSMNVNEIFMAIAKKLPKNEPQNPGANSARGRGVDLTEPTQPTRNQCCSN

- Kd: 21.3 nM
Substance: 6x His-tagged Etf-2^ΔHY (Etf-2 lacking the hydrophobic domain, amino acids 132-151) (natural protein)

From publication PMC6156607
